According to patent US8980604B2 (priority 2009, dated 2015):

Key:
[1] = biological target: T1, E. coli glycerol dehydrogenase (GlyDH, GldA), native (wild type) (Escherichia coli, UniProt P0A9S5); test: Inhibition by product 1,2-propanediol, native GlyDH; type: biochemical; design: made in house; host or cells: E. coli BL21 star (DE3) ΔgldA::Cm with pETTOPO-gldA; settings: read-out: loss of maximum activity
T1 sequence (P0A9S5 1-367): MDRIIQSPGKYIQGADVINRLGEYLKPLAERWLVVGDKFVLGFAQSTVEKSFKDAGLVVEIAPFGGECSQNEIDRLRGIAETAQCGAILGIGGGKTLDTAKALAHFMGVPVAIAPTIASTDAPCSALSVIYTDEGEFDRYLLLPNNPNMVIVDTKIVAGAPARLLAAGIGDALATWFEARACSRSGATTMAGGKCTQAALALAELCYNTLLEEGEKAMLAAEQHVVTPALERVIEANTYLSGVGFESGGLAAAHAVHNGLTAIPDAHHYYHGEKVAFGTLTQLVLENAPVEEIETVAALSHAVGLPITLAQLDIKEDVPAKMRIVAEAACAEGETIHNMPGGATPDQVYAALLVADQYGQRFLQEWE
Method: (§1) The 3 strains E. coli MG1655 pME101-VB01-gldA, E. coli MG1655 pME101-VB01-gldA*(A160T) and E. coli MG1655 pME101-VB01-gldA*(T120N) were cultivated in minimal medium with 10 g/l glucose as carbon source in 500 ml baffled Erlenmeyer flasks with 50 ml culture medium. The culture was carried out on a rotary shaker at 200 rpm. The temperature of the culture was maintained at 37° C. and the pH of the medium was buffered with MOPS (initial pH 6.8). Expression of the gene on the pME101-VB01 plasmid was induced by adding 100 μM IPTG at the beginning of the culture. The cultures were stopped at mid-exponential phase. The biomass was harvested by centrifugation, the supernatant was discarded and the pellet was stored at −20° C. before use.
(§2) Between 55-65 mg of E. coli biomass were resuspended in 9 ml of 100 mM Potassium phosphate pH 7, 0.1 mM DTT, 0.1 mM pyridoxal 5′-phosphate (PLP) and a protease inhibitor cocktail. Cells were sonicated on ice (Branson sonifier, 70 W) during four cycles of 30 sec with 30 sec intervals. After sonication, cells debris were removed by centrifugation at 12000 g for 30 min at 4° C. The crude extracts were desalted using an Econo-Pac 10 DG column (BioRad).

[2] = biological target: T1, E. coli glycerol dehydrogenase (GlyDH, GldA), native (wild type); test: Kinetics toward NADH and inhibition by NAD+, crude extract, native GlyDH
[3] = biological target: T2, E. coli glycerol dehydrogenase (GlyDH, GldA) mutant GlyDH*(A160T) (Escherichia coli, UniProt P0A9S5, A160T); test: Inhibition by substrate hydroxyacetone (Dixon plot), GlyDH*(A160T); type: biochemical; design: made in house; host or cells: E. coli BL21 star (DE3) ΔgldA::Cm with pETTOPO-gldA*(A160T); settings: crude extract
T2 sequence (P0A9S5 1-367 A160T): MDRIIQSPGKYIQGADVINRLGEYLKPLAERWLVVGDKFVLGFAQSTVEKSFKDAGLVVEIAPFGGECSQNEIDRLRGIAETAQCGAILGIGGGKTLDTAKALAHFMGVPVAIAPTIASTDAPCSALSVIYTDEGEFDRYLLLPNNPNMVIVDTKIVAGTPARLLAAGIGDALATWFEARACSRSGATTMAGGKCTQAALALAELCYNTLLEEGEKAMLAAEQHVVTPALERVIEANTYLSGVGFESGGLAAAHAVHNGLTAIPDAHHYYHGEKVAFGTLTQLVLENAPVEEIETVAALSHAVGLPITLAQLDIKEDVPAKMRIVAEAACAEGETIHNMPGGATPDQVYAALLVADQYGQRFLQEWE
Method: as §1, §2

[4] = biological target: GlyDH (glycerol dehydrogenase) of Nishise et al, 1984 (Cellulomonas); settings: read-out: Ki (hydroxyacetone), literature; cited from earlier work
[5] = biological target: T3, E. coli glycerol dehydrogenase (GlyDH, GldA) mutant GlyDH*(T120N) (Escherichia coli, UniProt P0A9S5, T120N); test: Inhibition by substrate hydroxyacetone (Dixon plot), GlyDH*(T120N); type: biochemical; design: made in house; host or cells: E. coli BL21 star (DE3) ΔgldA::Cm with pETTOPO-gldA*(T120N); settings: crude extract
T3 sequence (P0A9S5 1-367 T120N): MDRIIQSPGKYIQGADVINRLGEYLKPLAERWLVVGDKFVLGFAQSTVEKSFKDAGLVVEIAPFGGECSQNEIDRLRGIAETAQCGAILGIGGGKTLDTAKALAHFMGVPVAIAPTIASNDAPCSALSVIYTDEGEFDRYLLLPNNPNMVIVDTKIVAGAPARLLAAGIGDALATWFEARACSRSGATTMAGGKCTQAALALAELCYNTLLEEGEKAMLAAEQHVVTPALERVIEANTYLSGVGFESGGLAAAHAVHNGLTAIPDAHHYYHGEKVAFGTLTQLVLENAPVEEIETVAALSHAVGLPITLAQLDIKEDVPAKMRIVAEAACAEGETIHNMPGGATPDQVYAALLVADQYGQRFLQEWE
Method: as §1, §2

[6] = system: Glycerol dehydrogenase (GlyDH); type: biochemical, E. coli; settings: crude extract; hydroxyacetone as substrate
Method: (§3) Glycerol dehydrogenase activity was assayed by measuring the initial rate of NADH oxidation with a spectrophotometer at a wavelength of 340 nm and at a constant temperature of 30° C. […] Control assay (blank), lacking the substrate was run in parallel and the value measured for the control was subtracted to the value measured for the assay to take into account non-specific oxidation of NADH.
(§4) One unit of enzyme activity was defined as the amount of enzyme that consumed 1 μmol substrate per minute under the conditions of the assay. Specific enzyme activity was expressed as units per mg of protein.
(§5) Enzyme kinetics with regards to NADH were realised with increasing concentration of NADH between 0.025 and 0.4 mM.

[7] = system: Glycerol dehydrogenase (GlyDH); type: biochemical, E. coli; settings: for Specific activity, Glycolaldehyde: substrate glycolaldehyde; for Specific activity, Glycolaldehyde / Specific activity, Hydroxyacetone / Specific activity, Methyl glyoxal: purified enzyme, pH 6.5, 30° C.; for Specific activity, Hydroxyacetone: substrate hydroxyacetone; for Specific activity, Methyl glyoxal: substrate methyl glyoxal
Method: The oxidation reaction was carried out in quartz cuvette cells filled with 1 ml of the mixture: 100 mM MES buffer pH 6.5 with 30 mM of ammonium sulphate, 0.1 mM of iron sulphate, 0.1 mM of NADH and around 0.5 μg of purified proteins. […] In all reactions, non enzymatic rates were subtracted from the observed initial reaction rates. Enzyme activities are reported as μmoles of substrate/min/mg of […] and represents averages for at least three purified enzyme preparations.
The purification process designed to purify the glycerol dehydrogenase overexpressed in E. coli is composed of two steps. […] Cell pellets were resuspended in 3 ml of 50 mM HEPES buffer pH 7.5 containing protease inhibitor cocktail (Roche) and homogenized by sonication (at 0° C., under aerobic conditions, in four cycles of 30 s with 2 minutes intervals between each cycle). Cells debris were eliminated by centrifugation (5 min 12000 g) and nucleic acids in cell homogenate were precipitated by a streptomycin sulphate treatment (13.3 mg/ml final concentration, 15 minutes, 0° C.). The streptomycin sulphate treated cell homogenate was harvested by centrifugation (5 min 12000 g), and contaminant proteins of the supernatant were eliminated by ammonium sulphate precipitation at a saturated concentration of 20%, at 4° C., with stirring over one hour. The precipitate was then removed by centrifugation (20 min, 8600 g, 4° C.) and discarded. A further portion of ammonium sulphate at a saturated concentration of 30% was added to the supernatant as previously and then centrifuged 30 minutes at 8600 g 4° C. collecting the precipitate. The precipitate was dissolved in 3 ml of 50 mM Hepes Buffer pH 7.5 with 1M ammonium sulphate before loading 2.5 ml sample onto a hydrophobic interaction chromatography column (Hitrap phenyl sepharose, GEhealthcare) connected to an AKTA purifier system and equilibrated with 50 mM Hepes Buffer pH 7.5 containing 1M ammonium sulphate. After washing with 20 ml of the same buffer, proteins were eluted with a 20 ml linear gradient of 50 mM Hepes Buffer pH 7.5 from 1 M to 0 M of ammonium sulphate. […] The protein concentration and purity were respectively determined with the Bradford reagent and with sodium dodecylsulfate polyacrylamide gel electrophoresis (FIG. 3).
The kinetic parameters were determined with Sigma Plot (Systat Software Inc, San Jose Calif.) by fitting to the Michaelis Menten equation using a non linear regression.

[8] = substrate: CC(=O)CO; test: purified protein, by the assay type; settings: other: purified enzyme, pH 6.5, 30° C., 0.1 mM NADH, hydroxyacetone 0.1 to 15 mM
[9] = biological target: T4, Glycerol dehydrogenase (GlyDH) (Escherichia coli, UniProt P0A9S5, A160T); type: biochemical, E. coli; settings: NAD+ 0.6-1.2-2.5-4 mM
T4 construct: made in house; host or cells: E. coli MG1655, plasmid pME101-VB01-gldA; crude extract, not purified
Method: as §3, §4, §5

For `CC(O)CO` (centres unmarked) [1,2-propanediol], which inhibition at 40000 µM [1] is on record?
Its inhibition at 40000 µM is 50%.

And the inhibition at 100000 µM [1]?
Its inhibition at 100000 µM is 65%.

For `NC(=O)c1ccc[n+]([C@@H]2O[C@H](COP(=O)([O-])OP(=O)(O)OC[C@H]3O[C@@H](n4cnc5c(N)ncnc54)[C@H](O)[C@@H]3O)[C@@H](O)[C@H]2O)c1` [NAD+], which Ki [2] is on record?
Its Ki is 0.43 mM.

With `CC(=O)CO` [Hydroxyacetone, hydroxyacetone] as the molecule, how does the “Ki Hydroxyacetone increase by a factor (vs native)” value [3] read?
The value was “more than 10”.

What about the Ki [4] of the same molecule?
Its Ki is 11.6 mM.

And the “Ki Hydroxyacetone increase by a factor (vs native)” value [5]?
The value was “more than 10”.

B1: E. coli glycerol dehydrogenase (GlyDH, GldA), native (wild type) (Escherichia coli K-12) (protein)
chain: MDRIIQSPGKYIQGADVINRLGEYLKPLAERWLVVGDKFVLGFAQSTVEKSFKDAGLVVEIAPFGGECSQNEIDRLRGIAETAQCGAILGIGGGKTLDTAKALAHFMGVPVAIAPTIASTDAPCSALSVIYTDEGEFDRYLLLPNNPNMVIVDTKIVAGAPARLLAAGIGDALATWFEARACSRSGATTMAGGKCTQAALALAELCYNTLLEEGEKAMLAAEQHVVTPALERVIEANTYLSGVGFESGGLAAAHAVHNGLTAIPDAHHYYHGEKVAFGTLTQLVLENAPVEEIETVAALSHAVGLPITLAQLDIKEDVPAKMRIVAEAACAEGETIHNMPGGATPDQVYAALLVADQYGQRFLQEWE
Which results are given for B1?
Specific activity [6]: 1240 ± 77 nmol/min/mg; Specific activity, Glycolaldehyde [7]: 148.89 +/− 19.36 U/mg; Specific activity, Hydroxyacetone [7]: 36.3 +/− 0.88 U/mg; Specific activity, Methyl glyoxal [7]: 57.77 +/− 3.81 U/mg; Km [8]: 70 ± 20 µM

B2: E. coli glycerol dehydrogenase (GlyDH, GldA) mutant GlyDH*(A160T) (Escherichia coli K-12; A160T) (protein)
chain: MDRIIQSPGKYIQGADVINRLGEYLKPLAERWLVVGDKFVLGFAQSTVEKSFKDAGLVVEIAPFGGECSQNEIDRLRGIAETAQCGAILGIGGGKTLDTAKALAHFMGVPVAIAPTIASTDAPCSALSVIYTDEGEFDRYLLLPNNPNMVIVDTKIVAGTPARLLAAGIGDALATWFEARACSRSGATTMAGGKCTQAALALAELCYNTLLEEGEKAMLAAEQHVVTPALERVIEANTYLSGVGFESGGLAAAHAVHNGLTAIPDAHHYYHGEKVAFGTLTQLVLENAPVEEIETVAALSHAVGLPITLAQLDIKEDVPAKMRIVAEAACAEGETIHNMPGGATPDQVYAALLVADQYGQRFLQEWE
What does the source list for B2?
Specific activity [6]: 1140 ± 42 nmol/min/mg; Inhibition by NAD+ at the concentrations used [9]: almost no inhibition; Specific activity, Glycolaldehyde [7]: 167.33 +/− 6.03 U/mg; Specific activity, Hydroxyacetone [7]: 40.5 +/− 0.85 U/mg; Specific activity, Methyl glyoxal [7]: 58.27 +/− 2.42 U/mg; Kinetics compared with native enzyme ([7]; three substrates, pH 6.5): no significant differences
